Measured values from article PMC3323580, “Lack of Evidence from Studies of Soluble Protein Fragments that Knops Blood Group Polymorphisms in Complement Receptor-Type 1 Are Driven by Malaria” (PLoS ONE, 2012).

Target: T1, C1q, classical complement pathway protein (UniProt P02745 23-245; P02746 28-253; P02747 29-245)
T1 construct: Amine-coupled to a CM5 chip for SPR; in solution (140 ng/ml) for ELISA; source: bought: Complement Technology (Texas)
Experiment: SPR; C3b (1620 RU), C4b (1518 RU) and C1q (2125 RU) amine-coupled on three flow cells of one CM5 chip; CR1 fragments flowed at 30 µl/min, Biacore T100, 25°C, HBS-EP pH 7.4 (10 mM Hepes, 150 mM saline, 3 mM EDTA, 0.05% polysorbate 20); steady-state fit, one-to-one model; duplicates
Conditions: both partners purified

T1 sequence (P02745 23-245, chain 1 of 3): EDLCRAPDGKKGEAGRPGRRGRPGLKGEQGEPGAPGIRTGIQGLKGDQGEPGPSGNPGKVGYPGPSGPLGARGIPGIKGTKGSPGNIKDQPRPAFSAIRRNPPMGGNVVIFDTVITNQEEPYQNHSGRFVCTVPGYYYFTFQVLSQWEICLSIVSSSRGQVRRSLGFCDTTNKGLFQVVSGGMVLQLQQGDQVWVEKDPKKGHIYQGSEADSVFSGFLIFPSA
T1 sequence (P02746 28-253, chain 2 of 3): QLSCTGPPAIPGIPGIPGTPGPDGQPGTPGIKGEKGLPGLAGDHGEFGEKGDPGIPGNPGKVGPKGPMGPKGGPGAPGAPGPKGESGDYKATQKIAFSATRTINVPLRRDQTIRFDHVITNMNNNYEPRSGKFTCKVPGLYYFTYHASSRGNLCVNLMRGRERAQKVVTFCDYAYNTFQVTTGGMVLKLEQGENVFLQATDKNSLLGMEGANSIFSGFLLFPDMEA
T1 sequence (P02747 29-245, chain 3 of 3): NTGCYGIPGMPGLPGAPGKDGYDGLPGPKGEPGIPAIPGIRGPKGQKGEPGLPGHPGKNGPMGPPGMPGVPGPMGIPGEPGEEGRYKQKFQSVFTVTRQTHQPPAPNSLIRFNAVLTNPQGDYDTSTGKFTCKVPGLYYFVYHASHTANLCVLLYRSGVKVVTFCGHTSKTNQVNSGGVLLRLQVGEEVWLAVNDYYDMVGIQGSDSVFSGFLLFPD

B1: soluble CR1 (sCR1), full-length ectodomain of complement receptor-type 1 (receptor)
chain: not shown
notes: complement receptor-type 1 (CR1, CD35), human, soluble full-length ectodomain; also called full-length sCR1; source: a gift from Henry Marsh, Celdex Pharmaceuticals
- Kd: 8 ± 1 µM
